The source of these data is patent publication US20230212319A1, “NOVEL ANTIGEN BINDING DOMAINS AND SYNTHETIC ANTIGEN RECEPTORS INCORPORATING THE SAME” (University of Southern California, priority 2020, published 2023).

Type in all cases: cell-based
Assay [1] deals with target antigen-expressing cell line. Briefly: Jurkat NFAT-GFP (JNG) assay: induction of NFAT promoter driven GFP expression. Particulars: SAR-expressing JNG cells co-cultured with cell lines expressing their target antigen(s). How it is done: Induction ofNFAT promoter driven GFP expression. […] Cellular supernatant is collected and assayed for the induction of cytokines (e.g., IL2).
(§1) Cellular supernatant is collected and assayed for the induction of cytokines (e.g., IL2).
(§2) JNG (Jurkat cells expressing EGFP under an NFAT promoter) were infected with lentiviral vectors encoding different single chain and multi-chain SARs by spinfection in the presence of 8 µg/ml of Polybrene® (Sigma, Catalog no. H9268). The Jurkat-NFAT-GFP cells are engineered in such a way that the IL-2 promoter, which carries NFAT binding sites, is cloned upstream of the GFP gene. These cells have been used to study signaling via TCR and CAR. The different SARs were stably expressed in Jurkat NFAT-GFP cells by lentiviral mediated gene transfer, followed by selection with puromycin or blasticidin. No drug selection was used in case the construct lacked an antibiotic resistance gene. The SAR-expressing Jurkat-NFAT-GFP cells were cocultured with the target cells at E:T ratio of approximately 1:2 for approximately 4 hours to 18 hours. When the interaction between SIRs and their target antigen results in activation of the NFAT pathway, GFP expression is induced. […] GFP expression was monitored by FACS analysis. The Jurkat-NFAT-GFP (parental) cells were used as control. The structure of different constructs can be determined based on their names. […] The sequence of the other constructs in the table can be similarly determined from their names and by referring to the different Tables of this disclosure that provide the names and SEQ ID NO of the different modules. Alternatively, the composition and modular architecture of the different SAR constructs can be determined from their sequences by bioinformatics tools, including using nucleic acid and amino acids homology searches. A SAR is considered positive in the assay in case the SAR expressing Jurkat-NFAT-GFP cells show greater % GFP positive cells when cultured with the target cell line as compared to parental Jurkat-NFAT-GFP cells. […] In general, the number +/-, +, 2+, 3+, 4+, 5+ refer to approximately 5%, 10%, 20%, 30%, 40% and 50% GFP positive cells. The % of GFP induction in the above assay is dependent not only the relative strength of the SAR but also, among other factors, on the relative level of expression of the SAR in the JNG cells and the relative level of expression of the target antigen in the target cell line. To control for the difference in gene transduction efficiency of the different SAR constructs, the experiment was conducted with JNG cells transduced with SAR constructs co-expressing a drug resistance gene (e.g., puromycin or PAC) followed by drug selection to generate a stable population of SAR-expressing cells. It is to be noted that the drug resistance gene (e.g., PAC) in the SAR constructs is optional and in vivo studies were conducted with SAR constructs lacking the PAC gene.

The next assay concerns RAJI cells. Briefly: JNG assay, co-culture with RAJI cells. Particulars: for NFAT-GFP ASSAY: Raji: JNG cells expressing construct, co-culture with Raji. In a few lines:
(§3)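 Jurkat-NFAT-GFP (JNG) cells stably expressing SAR constructs via lentiviral transduction and puromycin/blasticidin selection were cocultured with target cells at E:T ~1:2 for ~4–18 h. NFAT-driven GFP was measured by FACS versus parental JNG cells; scores +/- to 5+ denote ~5–50% GFP-positive cells.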

A further assay deals with SKOV-3 cells. As to the kind of experiment: JNG assay, co-culture with SKOV-3 cells. The note with it: co-culture with SKOV-3. How it is done: as §1, §2
The test system of a further assay is RAJI-CD19-KO cells. Briefly: JNG assay, co-culture with RAJI-CD19-KO cells. Particulars: co-culture with RAJI-CD19-KO cells. In a few lines: as §3

B1: SEQ ID NO: 22098: FHVH attached to TCRg-6MD via IgCL linker and second FHVH attached to TCRd-6MD via IgG1-CH1 linker (protein)
chain: MALPVTALLLPLALLLHAARPQVQLVESGGGLVQPGGSLRLSCAASGFTFTNHAMSWVRQAPGKGLELVSSISGNGRTTYYADSVKGRFTISRDISKNTLDLQMNSLRAEDTAVYYCAKDGGETLVDSRGQGTLVTVSSLEGQPKANPTVTLFPPSSEELQANKATLVCLISDFYPGAVTVAWKADGSPVKAGVETTKPSKQSNNKYAASSYLSLTPEQWKSHRSYSCQVTHEGSTVEKTVAPTECSPIKTDVITMDPKDNCSKDANDTLLLQLTNTSAYYMYLLLLLKSVVYFAIITCCLLRRTAFCCNGEKSRAKRSGSGATNFSLLKQAGDVEENPGPTSMDWIWRILFLVGAATGAHSFEEVQLLESGGGLVQPGGSLRLSCAASGFTFSSYAMSWVRQAPGKGLEWVSSISGSGDYIYYADSVKGRFTISRDISKNTLYLQMNSLRAEDTAVYYCAKEGTGANSSLADYRGQGTLVTVSSTRASTKGPSVFPLAPSSKSTSGGTAALGCLVKDYFPEPVTVSWNSGALTSGVHTFPAVLQSSGLYSLSSVVTVPSSSLGTQTYICNVNHKPSNTKVDKRVEPKSCEVKTDSTDHVKPKETENTKQPSKSCHKPKAIVHTEKVNMMSLTVLGLRMLFAKTVAVNFLLTAKLFFLRAKRSGSGVKQTLNFDLLKLAGDVESNPGPSRGHMTEYKPTVRLATRDDVPRAVRTLAAAFADYPATRHTVDPDRHIERVTELQELFLTRVGLDIGKVWVADDGAAVAVWTTPESVEAGAVFAEIGPRMAELSGSRLAAQQQMEGLLAPHRPKEPAWFLATVGVSPDHQGKGLGSAVVLPGVEAAERAGVPAFLETSAPRNLPFYERLGFTVTADVEVPEGPRTWCMTRKPGA
Take B1: in assay [1], the “GFP induction / activity in JNG assay” value is recorded as “best activity”.

B2: 22195 (protein)
chain: MALPVTALLLPLALLLHAARPDIQMTQSPSSLSASVGDRVTITCKASDHINNWLAWYQQKPGQAPKLLIYGATTLETGVPSRFSGSGSGTDYTLTISSLQPEDFATYYCQQSWNTPWTFGQGTKLEIKRLEDLKNVFPPEVAVFEPSEAEISHTQKATLVCLATGFYPDHVELSWWVNGKEVHSGVCTDPQPLKEQPALNDSRYCLSSRLRVSATFWQNPRNHFRCQVQFYGLSENDEWTQDRAKPVTQIVSAEAWGRADCGFTSESYQQGVLSATILYEILLGKATLYAVLVSALVLMAMVKRKDSRGRAKRSGSGATNFSLLKQAGDVEENPGPTSATMDWIWRILFLVGAATGAHSGPGSDLGIKLLFAAAKGQDDEVRILLAAGADVNAKDFEGYTPLHVAAYDGHLEIVEVLLKAGADVNAKDSQGRTPLHEAAYSGHLEIVEVLLKAGADVNAQDDAGETPADLAAAWGHEDIAEVLQKGSGGGGSGGGGSGGGGSFEQVQLQQPGAELVKPGASVKMSCKASGYAFSSYWINWMKQKPGQGLEWIGQIYPGDGDTNYNGKFKGRATLTADTSSSTAYMQLSSLTSEDSAVYFCARSITTVVGCAMDYWGQGTSVTVSSTRIQNPDPAVYQLRDSKSSDKSVCLFTDFDSQTNVSQSKDSDVYITDKCVLDMRSMDFKSNSAVAWSNKSDFACANAFNNSIIPEDTFFPSPESSCDVKLVEKSFETDTNLNFQNLSVIGFRILLLKVAGFNLLMTLRLWSSRAKRSGSGVKQTLNFDLLKLAGDVESNPGPSRGHMTEYKPTVRLATRDDVPRAVRTLAAAFADYPATRHTVDPDRHIERVTELQELFLTRVGLDIGKVWVADDGAAVAVWTTPESVEAGAVFAEIGPRMAELSGSRLAAQQQMEGLLAPHRPKEPAWFLATVGVSPDHQGKGLGSAVVLPGVEAAERAGVPAFLETSAPRNLPFYERLGFTVTADVEVPEGPRTWCMTRKPGA
As for B2, in the assay with RAJI cells, the “NFAT-GFP ASSAY: Raji” value was 4+ (refer to approximately 5%, 10%, 20%, 30%, 40% and 50% GFP positive cells). Besides, the “NFAT-GFP ASSAY: SKOV-3” value in the assay with SKOV-3 cells is 4+ (refer to approximately 5%, 10%, 20%, 30%, 40% and 50% GFP positive cells).

B3: 22197 (protein)
chain: B2 chain
Take B3: in the assay with RAJI cells, the “NFAT-GFP ASSAY: Raji” value is 2+ (refer to approximately 5%, 10%, 20%, 30%, 40% and 50% GFP positive cells). Moreover, the “NFAT-GFP ASSAY: SKOV-3” value in the assay with SKOV-3 cells is 5+ (refer to approximately 5%, 10%, 20%, 30%, 40% and 50% GFP positive cells).

B4: SEQ ID NO: 22099: FHVH attached to TCRa-wt2-opt-6MD via IgCL linker and second FHVH attached to TCRb-wt2-opt-6MD via IgG1-CH1 linker (protein)
chain: MALPVTALLLPLALLLHAARPQVQLVESGGGLVQPGGSLRLSCAASGFTFTNHAMSWVRQAPGKGLELVSSISGNGRTTYYADSVKGRFTISRDISKNTLDLQMNSLRAEDTAVYYCAKDGGETLVDSRGQGTLVTVSSLEGQPKANPTVTLFPPSSEELQANKATLVCLISDFYPGAVTVAWKADGSPVKAGVETTKPSKQSNNKYAASSYLSLTPEQWKSHRSYSCQVTHEGSTVEKTVAPTECSGRADCGFTSESYQQGVLSATILYEILLGKATLYAVLVSALVLMAMVKRKDSRGRAKRSGSGATNFSLLKQAGDVEENPGPTSMDWIWRILFLVGAATGAHSFEEVQLLESGGGLVQPGGSLRLSCAASGFTFSSYAMSWVRQAPGKGLEWVSSISGSGDYIYYADSVKGRFTISRDISKNTLYLQMNSLRAEDTAVYYCAKEGTGANSSLADYRGQGTLVTVSSTRASTKGPSVFPLAPSSKSTSGGTAALGCLVKDYFPEPVTVSWNSGALTSGVHTFPAVLQSSGLYSLSSVVTVPSSSLGTQTYICNVNHKPSNTKVDKRVEPKSCIPEDTFFPSPESSCDVKLVEKSFETDTNLNFQNLSVIGFRILLLKVAGFNLLMTLRLWSSRAKRSGSGVKQTLNFDLLKLAGDVESNPGPSRGHMTEYKPTVRLATRDDVPRAVRTLAAAFADYPATRHTVDPDRHIERVTELQELFLTRVGLDIGKVWVADDGAAVAVWTTPESVEAGAVFAEIGPRMAELSGSRLAAQQQMEGLLAPHRPKEPAWFLATVGVSPDHQGKGLGSAVVLPGVEAAERAGVPAFLETSAPRNLPFYERLGFTVTADVEVPEGPRTWCMTRKPGA
For the molecule B4, in assay [1], the “GFP induction / activity in JNG assay” value is “good activity”.

B5: CD8SP-BCMA-FHVH-93-G4S-CD19-MOR0028-scFv-hCD8TM-BBZ-T2A-PAC (protein)
chain: MALPVTALLLPLALLLHAARPACEVQLLESGGGLIQPGGSLRLSCAASGFTFSSHAMTWVRQAPGKGLEWVSAISGSGDYTHYADSVKGRFTISRDNSKNTVYLQMNSLRAEDSAVYYCAKDEDGGSLLGHRGQGTLVTVSSGTGGGGSGGGGSGGGGSEFINIYNAEPANPSEKNSPEFDIVMTQSPATLSLSPGERATLSCRSSKSLQNVNGNTYLYWFQQKPGQSPQLLIYRMSNLNSGVPDRFSGSGSGTEFTLTISSLEPEDFAVYYCMQHLEYPITFGAGTKLEIKGGGGSGGGGSGGGGSEVQLVESGGGLVKPGGSLKLSCAASGYTFTSYVMHWVRQAPGKGLEWIGYINPYNDGTKYNEKFQGRVTISSDKSISTAYMELSSLRSEDTAMYYCARGTYYYGTRVFDYWGQGTLVTVSSTRTTTPAPRPPTPAPTIASQPLSLRPEACRPAAGGAVHTRGLDFACDIYIWAPLAGTCGVLLLSLVITLYCKRGRKKLLYIFKQPFMRPVQTTQEEDGCSCRFPEEEEGGCELRVKFSRSADAPAYQQGQNQLYNELNLGRREEYDVLDKRRGRDPEMGGKPRRKNPQEGLYNELQKDKMAEAYSEIGMKGERRRGKGHDGLYQGLSTATKDTYDALHMQALPPRSSGSGEGRGSLLTCGDVEENPGPHMTEYKPTVRLATRDDVPRAVRTLAAAFADYPATRHTVDPDRHIERVTELQELFLTRVGLDIGKVWVADDGAAVAVWTTPESVEAGAVFAEIGPRMAELSGSRLAAQQQMEGLLAPHRPKEPAWFLATVGVSPDHQGKGLGSAVVLPGVEAAERAGVPAFLETSAPRNLPFYERLGFTVTADVEVPEGPRTWCMTRKPGA
On to B5, for which the “GFP induction / activity in JNG assay” value in assay [1] is recorded as “effective GFP induction”. The “GFP induction / activity” value in the assay with RAJI cells (co-culture with RAJI cells) and with RAJI-CD19-KO cells was “effective GFP induction” in each case.
